Test results published in the nanobody polyreactivity screen of Harvey et al. (2022).

experiment: yeast display, Sf9 membrane polyspecificity reagent, FACS + sequencing; frameworks hold sequencing errors
How it was run: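 In a synthetic yeast display library (Saccharomyces cerevisiae BJ5465), nanobody expression was induced with galactose for 36–48 hours. FACS gates were set low and high (top ~1%) using anti-HA fluorescence for expression and streptavidin fluorescence for binding of the Sf9 membrane reagent. Each polyreactivity label is drawn from the gate of origin.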

Row | Sequence | polyreactivity (PSR sort gate)
1 | QVQLVESGGGLVQAGGSLRLSCAASGSIFPSYAMGWYRQAPGKERELVAAISKSGGRTKYADSVKGRFTISRDNAKNTVYLQMNSLKPEDTAVYYCAAYAYFHRREGYWGQGTQVTVSS | high polyreactivity
2 | QVQLVESGGGLVQAGGSLRLSCAASGSIFPSYAMGWYRQAPGKERELVAAISRSAGSTYYADSVKGRFTISRDNAKNTVYLQMNSLKPEDTAVYYCAADGYSSRYRYDYWGQGTQVTVSS | low polyreactivity
3 | QVQLVESGGGLVQAGGSLRLSCAASGSIFPSYAMGWYRQAPGKERELVAAISSSGGSTYYADSVKGRFTISRDNAKNTVYLQMNSLKPEDTAVYYCATRYRRWSTVVQDDYWGQGTQVTVSS | low polyreactivity
4 | QVQLVESGGGLVQAGGSLRLSCAASGSIFPSYAMGWYRQAPGKERELVATIGRGGTTNYADSVKGRFTISRDNAKNTVYLQMNSLKPEDTAVYYCNAERIWRYKYGYDYWGQGTQVTVSS | high polyreactivity
5 | QVQLVESGGGLVQAGGSLRLSCAASGSIFPVNAMGLYRQAPGKERELVAAITASGDSTYYADSVKGRFTISRDNAKNTVYLQMNSLKPEDTAVYYCNADGSYENREVYSFYYWGQGTQVTVSS | low polyreactivity
6 | QVQLVESGGGLVQAGGSLRLSCAASGSIFPVYAMGWYRQAPGKERELVAAITWRSGSTYYADSVKGRFTISRDNAKNTVYLQMNSLKPDDTAVYYCAKVPTYRFDHWGQGTQVTVSS | high polyreactivity
7 | QVQLVESGGGLVQAGGSLRLSCAASGSIFPWYAMGWYRQAPGKERELVAAISTGGSTYYADSVKGRFTISRDNAKNTVYLQMNSLKPEDTAVYYCAAAYGKYRFGYWGQGTQVTVSS | high polyreactivity
8 | QVQLVESGGGLVQAGGSLRLSCAASGSIFPYNAMGWYRQAPGKERELVAAISISGGSTYYADSVKGRFSISRDNAKNTVYLQMNSLKPEDTAVYYCAARQSLSSAFDYWGQGTQVTVSS | low polyreactivity
9 | QVQLVESGGGLVQAGGSLRLSCAASGSIFPYYAMGWYRPAPGKERELVAAISSGGSTNYADSVKGRFTISRDNAKNTVYLEMNSLKPEDTAVYYCAARWSRLFRHRVNYWYDYWGQGTQVTVSS | high polyreactivity
10 | QVQLVESGGGLVQAGGSLRLSCAASGSIFPYYAMGWYRQAPGKERELVAAISSGGSTNYADSVKGRFTISRDNAKNTVYLQMNSLKPEDTAEYYCAARWSRIFRDRVKYWYDYWGQGTQVTVSS | low polyreactivity
11 | QVQLVESGGGLVQAGGSLRLSCAASGSIFPYYAMGWYRQAPGKERELVAAITYIGGDTYYADSVKGRFTISRDNAKNTVYLQMNSLKPEETEVYYCNRPSSLAWPWTGSFSRYDYWGQGTQVTVSS | low polyreactivity
12 | QVQLVESGGGLVQAGGSLRLSCAASGSIFPYYAMGWYRQAPGKEWEFVAAISRRGGSTNYADSVKGRFTISRDTAKNTVYLQMNSLKPEDTAVYYCGKYTSYSRGYDYWGQGTQVTVSS | high polyreactivity
13 | QVQLVESGGGLVQAGGSLRLSCAASGSIFPYYAMGWYRQSPGKERELVASSNQSDGTTYYADSVKGRFTISRDNAKNTVYLQMNSLKPEDTAVYYCAADTTLQAFIRYRPIGSYDSWGQGTQVTVSS | low polyreactivity
14 | QVQLVESGGGLVQAGGSLRLSCAASGSIFPYYVMGWYRQAPGKERELVAAISWSGASTYYADSVKGRFTISRDNAKNTVYLQMNSLKPEDTAVYYCAKYSSHFENDYWGQGTQVTVSS | low polyreactivity
15 | QVQLVESGGGLVQAGGSLRLSCAASGSIFQAYAMGWYRQAPGKERELVASISSGGGTNYADSVKGRFTISRDNAKNTVYLQMNSLKPEDTAVYYCAADVYLVKYDYWGQGTQVTVSS | low polyreactivity
16 | QVQLVESGGGLVQAGGSLRLSCAASGSIFQGYPMGWYRQAPGKERELVATIRWSSGSRTNYADSVKGRFTISRDNAKNTVYLQMNSLKPEDTAVYYCAAGSRRYKYDYWGQGTQVTVSS | high polyreactivity

Row | Sequence | polyreactivity (PSR sort gate)
17 | QVQLVESGGGLVQAGGSLRLSCAASGSIFQHYAMGWYRQAPGKERELVAAISYDTTSTYYADSVKGLFTISRDNAKNTVYLQMNSLKPEDPAVYYCNTDPEVYGPFQYDYWGQGTQVTVSS | low polyreactivity
18 | QVQLVESGGGLVQAGGSLRLSCAASGSIFQHYAMGWYRQAPGKVRELVAAISSDTTSTYYADSVKGRFTISRDNAKNTVYLQMHSLKPEDTAVYYCNTYPEVYGPFQYDYWGQGTQVTVSS | low polyreactivity
19 | QVQLVESGGGLVQAGGSLRLSCAASGSIFQKNAMGWYRQAPGKERELVAVITRGGTSTYYADSVKGRFTISRDNAKNTVYLQMNSLKAEDTAVYSCAAKADKRLDYWGQGTQVTVSS | low polyreactivity
20 | QVQLVESGGGLVQAGGSLRLSCAASGSIFQPYAMGWYRQAPGKERELVAAINGRGGSTHYADSVKGRFTISRDNAKNTVYLQMNSLKPEDTAVYYCAARYYRDYRWYTYAYDYWGQGTQVTVSS | high polyreactivity
21 | QVQLVESGGGLVQAGGSLRLSCAASGSIFQQYAMGWYRQAPGKERELVASINTSGDGTYYADSVKGRFTISRDNAKNSVYLQMNSLKPEDTAVYYCAVEGIFEQLNRMDYWGQGTQVTVSS | low polyreactivity
22 | QVQLVESGGGLVQAGGSLRLSCAASGSIFQRNAMGSYRQAPGKERELVAAITYSGGGTYYADSVKGRFTISRDNAKNTVYLQMNSLKPEDTAVYYCNADGPSTPWVDYGYWGQGTQVTVSS | low polyreactivity
23 | QVQLVESGGGLVQAGGSLRLSCAASGSIFQRNAMGWYRQAPGKERELVAAITYSGGGTYYADSVKGRFTISRDNAKNTVYLQMNSLKPEDTAVYYCAADYKSKYSGYIYDYWGQGTQVTVSS | low polyreactivity
24 | QVQLVESGGGLVQAGGSLRLSCAASGSIFQRYAMGWYRQAPGKEREFVAAISGRGGSTYYADSVKGRFTISRDNAKNTVYLQMNSLKPEDTAVYYCAADSSRFYGRPRYYYWGQGTQVTVSS | high polyreactivity
25 | QVQLVESGGGLVQAGGSLRLSCAASGSIFQRYTMGWYRQAPGKERELVARISGRGGSTYYADSVKGRFTISRDNAKNTVYLQMKSLKPEDTAVYYCAADTGRYLDSNYWGQGTQVTVSS | high polyreactivity
26 | QVQLVESGGGLVQAGGSLRLSCAASGSIFQSYTMGGYRQAPGKERELVAAINSGGRTNYADSVKGRFTITRDNAKYTVYLQMNSLKPEDTAVYYCAKRLSTRASFGEEDSWGQGTQVTVSS | low polyreactivity
27 | QVQLVESGGGLVQAGGSLRLSCAASGSIFQVYAMGWYRQAPGKEREFVAAISYSGGGTYYADSVKGRFTISRDNAKNSVYLQMNSLKPEDTAVYYCAADVSGWEYDYWGQGTQVTVSS | low polyreactivity
28 | QVQLVESGGGLVQAGGSLRLSCAASGSIFQVYAMGWYRQAPGKEREFVAAISYSGGGTYYADSVKGRFTISRDTAKNTVYLQMNSLKPEDSAVYYCAATEQYGRDSWSSYRIFPPYDDWGQGTQVTVSS | low polyreactivity
29 | QVQLVESGGGLVQAGGSLRLSCAASGSIFQYNAMGWYRQAPGKERELVAAINGGGSTYYADSEKGRFTISRDNAKNTVYLQMNSLKPEDTAVYYCAADGGAYSYRGPGKFGIEDSWGQGTQVTVSS | low polyreactivity
30 | QVQLVESGGGLVQAGGSLRLSCAASGSIFRAYAMGWYRQAPGKERELVAAISWGGGSTSYADSVKGRFTISRDNAKNTVYLQMNSLKPEDTAVYYCNKVSLSKRRDYYWGQGTQVTVSS | high polyreactivity
31 | QVQLVESGGGLVQAGGSLRLSCAASGSIFRDNAMGWYRQAPGKERELVASIRSSGGRTYYADSVKGRFTISRDNAKNTVYLQMNSLKPEDTAVYYCARRWYPVTPYARMYYWGQGTQVTVSS | low polyreactivity
